In assay [1] the target is T1, human LILRB1 expressed on cells (human, UniProt Q8NHL6 24-650).
T1 construct: In 293T cells it was expressed from pCMV3-LILRB1-GFP; also called CHO-LILRB1; Jurkat-LILRB1
Description: flow cytometry, CHO-LILRB1 cells. In general terms: A flow cytometer gives signals particle by particle.

The target of assay [2] is T2, human LILRB2 expressed on cells (human, UniProt Q8N423 22-597).
T2 construct: In 293T cells it was expressed from pCMV3-LILRB2-GFP; also called CHO-LILRB2; Jurkat-LILRB2
Kind of assay: flow cytometry, CHO-LILRB2 cells.

In assay [3] the target is T3, LILRB1-ECD-HIS (SinoBiological Cat #: 16014-H02H) (human, UniProt Q8NHL6 24-461).
T3 construct: Bought protein; also called monomeric antigen LILRB1-ECD-HIS; not shown: His tag
Description: SPR (Carterra LSA), antibody captured, antigen injected.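 Note: kd obtained from kinetic analysis of antibody binding to the antigen, with association and dissociation phases fitted in the instrument software.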

In assay [4] the target is T4, LILRB2-ECD-HIS (SinoBiological Cat #: 14132-H02H) (human, UniProt Q8N423 22-460).
T4 construct: Bought protein; also called monomeric antigen LILRB2-ECD-HIS; not shown: His tag
The assay is described as above.

Assay [5] concerns the target T1, human LILRB1 expressed on cells. Description: flow cytometry, CHO-LILRB1 cells. The source holds these as a separate data set.
The target is the same in assay [6]. Kind of assay: flow cytometry, CHO-LILRB1 cells; blocked ligand: APC HLA-G trimer tetramer.

Usually EC50 stands for the concentration at which the effect is half-maximal. As a reminder, the Kd is the free concentration of one partner at which half of the binding sites on the other are occupied at equilibrium, for simple one-to-one binding. Higher therefore signals lower affinity. The IC50 is the concentration at which inhibition is half-maximal. A lower IC50 goes with greater potency.

Where two headings read alike, the source gives them in different places.

T4 sequence (Q8N423 other isoform, or with tags, fused parts or gaps H02H H02H): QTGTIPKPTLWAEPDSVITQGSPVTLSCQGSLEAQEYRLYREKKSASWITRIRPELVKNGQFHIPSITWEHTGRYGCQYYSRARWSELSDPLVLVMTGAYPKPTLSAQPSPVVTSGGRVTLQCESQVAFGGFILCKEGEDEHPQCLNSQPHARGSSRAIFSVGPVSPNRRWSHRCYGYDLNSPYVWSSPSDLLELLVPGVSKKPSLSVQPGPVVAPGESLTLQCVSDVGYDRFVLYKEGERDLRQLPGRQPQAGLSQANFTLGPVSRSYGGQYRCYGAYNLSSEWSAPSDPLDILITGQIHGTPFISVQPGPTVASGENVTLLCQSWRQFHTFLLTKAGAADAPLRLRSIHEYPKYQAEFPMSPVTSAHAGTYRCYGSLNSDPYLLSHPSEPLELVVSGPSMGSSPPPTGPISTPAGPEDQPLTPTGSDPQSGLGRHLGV
T2 sequence (Q8N423 other isoform, or with tags, fused parts or gaps limits assumed): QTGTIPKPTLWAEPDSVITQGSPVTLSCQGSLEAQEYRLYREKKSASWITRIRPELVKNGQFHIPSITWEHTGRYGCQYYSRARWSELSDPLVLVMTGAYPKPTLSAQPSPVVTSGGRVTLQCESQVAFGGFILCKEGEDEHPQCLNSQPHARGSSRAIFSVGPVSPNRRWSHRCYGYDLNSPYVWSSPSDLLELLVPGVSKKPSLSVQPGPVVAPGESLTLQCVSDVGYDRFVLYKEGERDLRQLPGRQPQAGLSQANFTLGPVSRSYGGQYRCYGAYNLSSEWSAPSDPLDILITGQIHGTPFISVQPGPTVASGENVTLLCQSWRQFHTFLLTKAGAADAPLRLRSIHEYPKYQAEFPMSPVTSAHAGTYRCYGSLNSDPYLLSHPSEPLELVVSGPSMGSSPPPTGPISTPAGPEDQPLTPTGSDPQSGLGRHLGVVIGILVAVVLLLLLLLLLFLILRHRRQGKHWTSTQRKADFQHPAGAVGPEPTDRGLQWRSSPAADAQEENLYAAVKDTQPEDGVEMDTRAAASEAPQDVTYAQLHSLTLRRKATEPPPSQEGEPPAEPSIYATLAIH
T3 sequence (Q8NHL6 other isoform, or with tags, fused parts or gaps H02H H02H): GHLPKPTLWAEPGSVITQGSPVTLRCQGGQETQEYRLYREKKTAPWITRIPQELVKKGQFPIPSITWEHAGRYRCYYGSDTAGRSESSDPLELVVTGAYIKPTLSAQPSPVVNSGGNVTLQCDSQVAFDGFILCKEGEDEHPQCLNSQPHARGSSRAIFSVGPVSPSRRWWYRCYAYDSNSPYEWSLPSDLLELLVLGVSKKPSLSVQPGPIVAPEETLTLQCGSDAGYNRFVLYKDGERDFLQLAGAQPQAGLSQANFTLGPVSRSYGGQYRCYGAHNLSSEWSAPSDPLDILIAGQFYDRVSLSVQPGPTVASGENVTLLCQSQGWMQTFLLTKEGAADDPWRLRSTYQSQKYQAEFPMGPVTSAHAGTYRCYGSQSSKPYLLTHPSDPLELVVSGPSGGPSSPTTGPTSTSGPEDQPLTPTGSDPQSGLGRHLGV
T1 sequence (Q8NHL6 other isoform, or with tags, fused parts or gaps limits assumed): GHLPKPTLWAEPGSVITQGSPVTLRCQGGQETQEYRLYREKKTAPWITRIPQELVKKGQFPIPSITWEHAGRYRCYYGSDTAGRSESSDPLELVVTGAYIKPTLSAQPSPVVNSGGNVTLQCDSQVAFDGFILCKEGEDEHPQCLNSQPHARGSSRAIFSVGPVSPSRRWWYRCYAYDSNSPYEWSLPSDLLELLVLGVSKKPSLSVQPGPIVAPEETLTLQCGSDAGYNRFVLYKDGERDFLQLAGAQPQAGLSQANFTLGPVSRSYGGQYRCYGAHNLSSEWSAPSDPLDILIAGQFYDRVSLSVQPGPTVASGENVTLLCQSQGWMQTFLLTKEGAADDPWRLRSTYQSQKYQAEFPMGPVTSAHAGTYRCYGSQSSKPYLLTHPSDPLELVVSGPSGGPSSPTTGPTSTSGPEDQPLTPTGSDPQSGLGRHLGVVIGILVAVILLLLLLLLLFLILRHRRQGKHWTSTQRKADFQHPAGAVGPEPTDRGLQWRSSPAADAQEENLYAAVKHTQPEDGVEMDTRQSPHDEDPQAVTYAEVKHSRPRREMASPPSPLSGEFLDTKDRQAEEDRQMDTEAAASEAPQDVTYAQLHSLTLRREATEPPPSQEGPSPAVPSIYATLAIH

B1: #21 (antibody, human IgG1, V domains shown)
VH: QVQLQQSGAELMKPGASVKISCKATGSTFSSYWIEWVKQRPGHGLEWIGEILPGSGSTNYNEKFKGKATFTADTSSNTAYMQLSSLTSEDSAVYYCARSGAGGYDSGAFAYWGQGTLVTVSA
VL: DIVLTQSPASLAVSLGQRATISCRASESVDTYGNSFMHWYQQKPGQPPKLLIYRTSNLESGIPARFSGSGSRTDFTLTINPVEADDVATYYCQQSNEDPWTFGGGTKLEIK
notes: also called D2M002-021
On to B1, for which the results for the EC50 in assay [1] and in assay [2] were 2.35 µg/mL and 0.894 µg/mL, respectively. Besides, the “gMFI (max)” value in assay [1] turned out to be 50600; in assay [2], 25600. Moreover, the dissociation constant (Kd) in assay [3] turned out to be 0.667 nM; in assay [4] it was 0.1 nM.

B2: #41 (antibody, human IgG1, V domains shown)
VH: DVQLQQSGAELMKPGASVKISCKATGYTFSSSWIEWVKQRPGHGLEWIGEILPGSGNTSYNEKFKGKATFTADTSSSAAYMQLSSLTSEDSAVYYCARSGLYYDYGGFAYWGQGTLVTVSA
VL: DIVLTQSPASLAVSLGQRATISCRASESVDTYGNSFMHWYQQKPGQPPKLLIYRTSNLESGIPARFSGSGSRTDFTLTINPVEADDVATYYCQQSNEDPFTFGSGTKLEIK
notes: also called D2M002-041
Take B2: the dissociation constant (Kd) was found to be 23.2 nM in assay [3] and 0.624 nM in assay [4].

B3: #36 (antibody, human IgG1, V domains shown)
VH: QVQLQQSGAELMKPGASVRISCKATGYTFSSSWIEWVKQRPGHGLEWIGEILPGSGTTNYNEKFKGKATFTADTSSNTAYMQLSSLTSEDSAVYYCARSGAGGYDSGAFTYWGQGTLVTVSA
VL: DIVLTQSPASLAVSLGQRATISCRASESIDTYGNSFMHWYQQKPGQPPKLLIYRASNLESGIPARFSGSGSRTDFTLTINPVEADDVATYYCQQSNEDPWTFGGGTKLEIK
notes: also called D2M002-036
For B3, the Kd in assay [3] was 3.44 nM; in assay [4] it was 0.145 nM.

B4: #28 (antibody, human IgG1, V domains shown)
VH: EVQLQQSGAELMKPGASVKISCKATGYTFSSYWIEWVKQRPGHGLEWIGEILPGSGSTNYNEKFKGKATFTADTSSNTAYMQLSSLTSEDSAVYYCARSGAGGYDSGAFAYWGQGTLVTVSS
VL: DIVMTQSPASLAVSLGQRATISCRASESVDTYGNSFMHWYQQKPGQPPKLLIYRTSNLESGIPARFSGSGSRTDFTLTINPVEADDVATYYCQQSNEDPWTFGGGTKLEIK
notes: also called D2M002-028
For the molecule B4, the EC50 turned out to be 1.83 µg/mL in assay [1] and 0.836 µg/mL in assay [2]. Further, the “gMFI (max)” value in assay [1] came to 40300; in assay [2], 26600. The figures for the Kd in assay [3] and in assay [4] were 0.882 nM and 0.0385 nM, respectively.

B5: #11 (antibody, human IgG1, V domains shown)
VH: EVQLQQSGAELMKPGASVKISCKATGYTFSNYWIEWVKQRPGHGLEWIGEILPGSGSTDYNEKFEGKATFTADTSSNTAYMQLSSLTSEDSAVYYCARSGAGGYDSGAFAYWGQGTLVTVSA
VL: DIQMTQSPASLAVSLGQRATISCRASESVDTYGNSFMHWYQQKPGQPPKLLIYRTSNLESGIPARFSGSGSRTDFTLTINPVEADDVATYYCQQSNEDPWTFGGGTKLEIK
notes: also called D2M002-011
For the molecule B5, the concentration for a half-maximal effect (EC50) in assay [5] is 1.13 µg/mL; in assay [1], 1.46 µg/mL; in assay [2], 1.2 µg/mL. In addition, the “gMFI (max)” value in assay [1] stood at 40000; in assay [2], 21600. Further, the Kd came out at 0.417 nM in assay [3] and 0.0213 nM in assay [4]. This molecule also showed a 50% inhibitory concentration (IC50) in assay [6] of 0.367 µg/mL.

B6: #40 (antibody, human IgG1, V domains shown)
VH: EVQLQQSGAELMKPGASVKISCKTTGNTFSSYWIEWVKQRPGHDLEWIGEILPGRGSTNNNEKFKGKAPFTADTSSNTAYMQLNSLTSEDSAVYYCARSGGGGYDSGAFAYWGQGTLVTVSA
VL: DIVLTQSPASLAVSLGQRATISCRASESVDTYGNSFMHWYQQKPGQPPKLLIYRTSNLESGIPARFSGSGSRTDFTLTINPVEADDVATYYCQQSNEDPWTFGGGTKLEIK
notes: also called D2M002-040
Regarding B6, the dissociation constant Kd is 34.4 nM in assay [3] and 3.05 nM in assay [4].

B7: #27 (antibody, human IgG1, V domains shown)
VH: EVQLQQSGAELMKPGASVKISCKITGYTFSSYWIEWVKQRPGHDLEWIGEILPGSGSTNYNEKFKGKASFTADTSSNTAYMQLNSLTSEDSAVYYCARSGAGGYDSGAFAYWGQGTLVTVSA
VL: DIVLTQSPASLAVSLGQRATISCRASESVDTYGNSFMHWYQQKPGQPPKLLIYRTSNLESGIPARFSGSGSRTDFTLTINPVEADDVATYYCQQSNEDPWTFGGGTKLEIK
notes: also called D2M002-027
For the molecule B7, the concentration for a half-maximal effect (EC50) in assay [5] was found to be 1.72 µg/mL; in assay [1], 1.02 µg/mL; in assay [2], 0.435 µg/mL. The “gMFI (max)” value in assay [1] turned out to be 35700; in assay [2], 23900. Further, the Kd came out at 0.556 nM in assay [3] and 0.0481 nM in assay [4]. Further, the half-inhibitory concentration (IC50) in assay [6] was found to be 0.569 µg/mL.

B8: #8 (antibody, human IgG1, V domains shown)
VH: EVQLQQPGAELMKPGASVKISCKATGYTFSSSWTEWVKQRPGHGLEWIGEILPGSGSTNYNEKFKGKATFTADTSSNTAYMQLSSLTSEDSAVYYCARSGAGGYDSGAFAYWGQGTLVTVSA
VL: DIVLTQSPASLAVSLGQRATISCRASESIDTYGNSFMHWYQQKPGQPPKLLIYRTSNLESGIPARFSGSGSRTDFTLTINPVEADDVATYYCQQSNEDPWTFGGGTKLEIK
notes: also called D2M002-008
Take B8: the values for the EC50 in assay [5], in assay [1] and in assay [2] were 0.768 µg/mL, 1.08 µg/mL and 0.565 µg/mL, respectively. Besides, the figures for the “gMFI (max)” value in assay [1] and in assay [2] were 46500 and 24800, respectively. Moreover, the figures for the dissociation constant Kd in assay [3] and in assay [4] were 0.64 nM and 0.191 nM, respectively. The molecule further came in with an IC50 in assay [6] of 0.26 µg/mL.

B9: #16 (antibody, human IgG1, V domains shown)
VH: EVQLQQSGAELMKPGASVKISCKATGNTFSSYWIEWVKQRPGHDLEWIGEILPGSGSTNYNEKFKGKATFTADTSSNTAYMQLNSLTSEDSAVYYCARSGAGGYDSGAFAYWGQGTLVTVSA
VL: DIEMTQSPASLAVSLGQRATISCRASESIDSYGNSFMHWYQQKPGQPPKLLIYRTSNLESGIPARFSGSGSRTDFTLTINPVEADDVATYYCQQSNEDPWTFGGGTKLEIK
notes: also called D2M002-016
In assay [5], B9 registered a concentration giving a half-maximal response (EC50) of 2.66 µg/mL. For the same molecule, the Kd was determined as 0.714 nM in assay [3] and 0.0385 nM in assay [4]. Moreover, the IC50 in assay [6] came out at 1.18 µg/mL.

B10: #22 (antibody, human IgG1, V domains shown)
VH: QVQLQQSGAELMKPGASVKISCKATGYTLSSYWIEWVKQRPGHGLEWIGEILPGSGSTNYNEKFKGKATFTADTSSNTAYMQLSSLTSEDSAVYYCARSGAGGYDSGAFAYWGQGTLVTVSA
VL: DIVLTQSPASLAVSLGQRATISCRASESVDTYGNSFMHWYQQKPGQPPKLLIYRTSNLESGIPARFSGSGSRTDFTLTINPVEADDVATYYCQQSNEDPWTFGGGTKLEIK
notes: also called D2M002-022
Take B10: the 50% effective concentration (EC50) in assay [5] turned out to be 2.01 µg/mL; in assay [1], 1.99 µg/mL; in assay [2] it was 0.911 µg/mL. Further, the “gMFI (max)” value in assay [1] is 49300; in assay [2], 26300. Besides, the Kd in assay [3] was determined as 0.588 nM; in assay [4] it was 0.0323 nM. The molecule further yielded an IC50 in assay [6] of 0.758 µg/mL.

B11: #3 (antibody, human IgG1, V domains shown)
VH: QIQLLQSGPELVKPGASVKMSCKASGYTFTRYVMYWVKQKPGQGLEWIGYINPDNDGTKYNEKFKGKATLTSDKSSSTAYMELSSLTSEDSAVYYCARGDLELLPYYDYVRNAMDYWGQGTSVTVSS
VL: DIQMTQSPASLSASVGETVTITCRASGNIHNYLAWYQQKQGKSPQLLVYNAKTLADGVPSRFSGSGSGTQYSLKINSLQPEDFGSYYCQHFWSTPPTFGGGTKLEIK
notes: also called D2M002-003
As for B11, the EC50 in assay [1] was 0.264 µg/mL; in assay [2], 0.058 µg/mL. Moreover, the “gMFI (max)” value stood at 29900 in assay [1] and 18500 in assay [2]. Besides, the Kd in assay [3] was 57.1 nM; in assay [4], 0.542 nM.
